Experimental data as given in US20230382979A1 (ADAPTIVE BIOTECHNOLOGIES, published 2023).
Numbering of substitutions follows the chain as printed. Read-outs that look alike come from different tables or passages of the source.

T1: MERS-COV (S1+S2)
T1 chain: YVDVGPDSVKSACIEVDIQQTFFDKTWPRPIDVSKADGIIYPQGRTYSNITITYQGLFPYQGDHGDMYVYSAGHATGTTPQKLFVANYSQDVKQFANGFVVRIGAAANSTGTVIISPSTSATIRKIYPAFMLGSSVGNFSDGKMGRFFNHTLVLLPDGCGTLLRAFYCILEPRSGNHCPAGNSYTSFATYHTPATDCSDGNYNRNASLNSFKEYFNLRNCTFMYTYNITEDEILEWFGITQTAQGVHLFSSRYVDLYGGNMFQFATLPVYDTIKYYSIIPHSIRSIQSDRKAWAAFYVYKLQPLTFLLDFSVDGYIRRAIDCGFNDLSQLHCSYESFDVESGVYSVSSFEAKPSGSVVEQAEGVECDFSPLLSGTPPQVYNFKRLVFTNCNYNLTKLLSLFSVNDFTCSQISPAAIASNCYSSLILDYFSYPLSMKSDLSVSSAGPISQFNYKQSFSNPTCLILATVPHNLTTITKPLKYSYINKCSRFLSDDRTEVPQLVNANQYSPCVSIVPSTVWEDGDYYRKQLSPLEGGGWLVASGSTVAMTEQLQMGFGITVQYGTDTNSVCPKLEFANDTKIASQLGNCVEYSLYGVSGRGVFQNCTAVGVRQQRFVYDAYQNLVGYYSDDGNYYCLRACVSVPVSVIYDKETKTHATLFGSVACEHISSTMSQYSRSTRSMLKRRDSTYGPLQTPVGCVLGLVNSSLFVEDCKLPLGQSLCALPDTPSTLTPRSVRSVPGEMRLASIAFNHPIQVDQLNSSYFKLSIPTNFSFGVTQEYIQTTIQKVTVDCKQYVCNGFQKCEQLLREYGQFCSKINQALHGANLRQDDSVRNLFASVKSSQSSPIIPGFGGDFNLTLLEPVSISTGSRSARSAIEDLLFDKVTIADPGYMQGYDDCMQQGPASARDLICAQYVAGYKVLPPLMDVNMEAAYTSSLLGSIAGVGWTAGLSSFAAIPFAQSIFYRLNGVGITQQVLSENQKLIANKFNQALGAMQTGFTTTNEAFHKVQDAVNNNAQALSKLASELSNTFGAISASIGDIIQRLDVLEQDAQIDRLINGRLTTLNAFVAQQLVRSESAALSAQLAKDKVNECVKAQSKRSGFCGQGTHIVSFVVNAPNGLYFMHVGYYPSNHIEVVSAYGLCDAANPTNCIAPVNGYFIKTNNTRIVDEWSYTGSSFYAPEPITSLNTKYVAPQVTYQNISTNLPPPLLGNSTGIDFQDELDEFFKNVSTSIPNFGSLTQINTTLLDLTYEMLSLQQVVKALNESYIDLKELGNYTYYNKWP

T2: MERS-COV (S2)
T2 chain: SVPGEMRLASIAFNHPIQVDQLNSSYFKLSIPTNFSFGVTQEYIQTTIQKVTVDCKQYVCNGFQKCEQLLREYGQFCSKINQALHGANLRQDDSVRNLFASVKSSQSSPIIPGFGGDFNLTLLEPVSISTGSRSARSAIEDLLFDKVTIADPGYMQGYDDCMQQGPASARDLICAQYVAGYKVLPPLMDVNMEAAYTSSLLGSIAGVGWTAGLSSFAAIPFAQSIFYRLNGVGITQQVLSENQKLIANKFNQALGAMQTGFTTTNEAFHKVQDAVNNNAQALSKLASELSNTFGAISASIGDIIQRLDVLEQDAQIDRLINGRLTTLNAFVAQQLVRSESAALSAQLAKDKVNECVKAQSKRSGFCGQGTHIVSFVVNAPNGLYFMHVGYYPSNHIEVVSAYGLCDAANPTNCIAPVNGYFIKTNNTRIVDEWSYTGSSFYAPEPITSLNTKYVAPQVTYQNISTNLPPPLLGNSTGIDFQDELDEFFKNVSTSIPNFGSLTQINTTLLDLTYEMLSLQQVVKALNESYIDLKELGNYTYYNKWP

B1: antibody 1872 (antibody, V domains shown)
VH: EVQLVESGGGLVKPGGSLRLSCAASGFSFSLYTMNWVRQAPGKGLEWVSYISSSSSYRYYADSVKGRFSVSRDNAKNALYLQMNGLRAEDTAVYYCARDGYCPRGVCTYYGMDVWGQGTTVTVSA
VL: EIVMTQSPATLSVSPGERATLSCRASQSVGSRLAWYQQKPGQAPRLLIYDATIRATGIPARFSGSGSGTDFTLTISGLQSEDFAVYYCQRYNNWPPAYTFGQGTKLEIK
B2: antibody 1859 (antibody, V domains shown)
VH: B1 VH with S30N, L31T, R58K, A61S, N77K, A78S, R104N, A125L
VL: B1 VL with G30S, R32N, D50G, T52S, I53T, D70E, Y87F, R90Q, N92S, N93K
B3: antibody 2080 (antibody, V domains shown)
VH: QVQLQQWGAGLLKPSETLSLTCAVYGGSFSGYYWSWIRQPPGKGLEWIGRINDIGSTDYNPSLKSRVTISVDTSKNQFSLKLTSVTAADTAVYYCAREPFDSEGTFDYWGQGTLVIVSS
VL: DIQMTQPPSTLSASVGDRVTITCRASQSISRWLAWYRQKPGKAPKLLIYDASSLQSGVPSRFSGSGSGTEFTLTISSLQPDDLATYYCQQYNTYPYTFGQGTKLEIK
B4: antibody 2024 (antibody, V domains shown)
VH: QVQLVQSGAEVKKPGASVKVSCKVSGYTLIELSMHWVRQAPGKGLEWMGGFDPEEGETIYAQKFQGRVTMTEDTSTDTAYMELSSLRSEDTAVYYCTTSPPVGATGAWFDPWGQGTLVTVSA
VL: SYVLTQPPSVSVAPGKTARITCGGNNIGSKSVHWYQQKPGQAPVLVVYDDSDRPSGIPERFSGSNSGNTATLTISGLQAEDEADYYCSSYTSSSTVVFGGGTKLTVL

How the values were obtained:
[1] = biological target: SARS-CoV-2 spike protein, WA1/2020, borne on lentiviral pseudovirus (SARS-CoV-2, WA01/2020 strain, UniProt P0DTC2 14-1273); assay: cell-based or functional assay
[2] = biological target: SARS-CoV (2003) spike protein borne on lentiviral pseudovirus (SARS-CoV (2003), UniProt P59594 14-1255); assay: cell-based or functional assay
[3] = biological target: T3, S2 subunit of the SARS-CoV-2 spike protein, WA01/2020 strain (SARS-CoV-2, WA01/2020 strain, UniProt P0DTC2 686-1213); assay: ELISA on S2 (S2 Binding EC50)
MERS-COV (S1+S2) [4] = biological target: T1, MERS-COV (S1+S2); assay: dose-response ELISA on coated spike antigen
MERS-COV (S2) [5] = biological target: T2, MERS-COV (S2); assay: dose-response ELISA on coated spike antigen
[6] = biological target: T4, S1 subunit of the SARS-CoV-2 spike protein, WA01/2020 strain (SARS-CoV-2, WA01/2020 strain, UniProt P0DTC2 16-685); assay: ELISA screening, antibody concentration not given
[7] = biological target: T5, SARS-CoV-2 nucleocapsid (N) protein (SARS-CoV-2, UniProt P0DTC9 1-419); assay: ELISA screening, antibody concentration not given
[8] = biological target: T3, S2 subunit of the SARS-CoV-2 spike …; assay: dose-response ELISA; antigen taken from the column 'Structural data'
MERS-COV (S1+S2) [9] = biological target: T1, MERS-COV (S1+S2); assay: dose-response ELISA on coated spike antigen
MERS-COV (S2) [10] = biological target: T2, MERS-COV (S2); assay: dose-response ELISA on coated spike antigen
[11] = biological target: T4, S1 subunit of the SARS-CoV-2 spike …
[12] = biological target: T4, S1 subunit of the SARS-CoV-2 spike …; assay: dose-response ELISA; antigen taken from the column 'Structural data'
[13] = biological target: T6, SARS-CoV-2 spike (S) protein trimer, WA01/2020 strain (SARS-CoV-2, WA01/2020 strain, UniProt P0DTC2 16-1213)
[14] = biological target: T4, S1 subunit of the SARS-CoV-2 spike …; assay: ELISA, antibody at 0.1 ug/mL
[15] = biological target: T3, S2 subunit of the SARS-CoV-2 spike …; assay: ELISA, antibody at 0.1 ug/mL
[16] = biological target: T5, SARS-CoV-2 nucleocapsid (N) protein; assay: ELISA, antibody at 0.1 ug/mL
[17] = biological target: T6, SARS-CoV-2 spike (S) protein trimer, …; assay: dose-response ELISA; antigen taken from the column 'Structural data'

| Binder | Pseudo Neut, WA1/2020 IC50 (pM) [1] [pM] | Pseudo Neut, SARS-CoV 2003 IC50 [2] [nM] | EC50 [3] [nM] | binding result [6] | binding result [7] | EC50 [8] [nM] | other results |
| --- | --- | --- | --- | --- | --- | --- | --- |
| B1 | 133 | 27 | 0.071 | no binding (tested: not printed) | no binding (tested: not printed) | 0.071 | binding result (MERS-COV (S1+S2) [4]): no binding (tested: 10000 ng/ml); binding result (MERS-COV (S2) [5]): no binding (tested: 10000 ng/ml) |
| B2 | 889 | 115 | 1.22 | no binding (tested: not printed) | no binding (tested: not printed) | 1.22 | binding result (MERS-COV (S1+S2) [9]): no binding (tested: 10000 ng/ml); binding result (MERS-COV (S2) [10]): no binding (tested: 10000 ng/ml) |
| B3 | – | – | – | – | – | – | Kd [11]: 0.69 nM; EC50 [12]: 0.025 nM |
| B4 | – | – | – | – | – | – | Kd [13]: 15.6 nM; binding result [14]: no binding (tested: 0.1 ug/mL); binding result [15]: no binding (tested: 0.1 ug/mL); binding result [16]: no binding (tested: 0.1 ug/mL); EC50 [17]: 1.15 nM |
